According to publication PMC3897949, “Dimeric structure of p300/CBP associated factor” (BMC Structural Biology, 2014):

B1: PCAF HAT domain (amino acids 493-658) L512A/M513A/V516A (domain or fragment, human, UniProt Q92831 493-658, looked up)
chain: VIEFHVVGNSLNQKPNKKIAAWLAGLQNVFSHQLPRMPKEYITRLVFDPKHKTLALIKDGRVIGGICFRMFPSQGFTEIVFCAVTSNEQVKGYGTHLMNHLKEYHIKHDILNFLTYADEYAIGYFKKQGFSKEIKIPKTKYVGYIKDYEGATLMGCELNPRIPYTE
notes: p300/CBP associated factor (PCAF, KAT2B), human, HAT domain, residues 493-658; also called LMV512AAA
B2: PCAF HAT domain (amino acids 493-658) F539A (domain or fragment, human, UniProt Q92831 493-658, looked up)
chain: VIEFHVVGNSLNQKPNKKILMWLVGLQNVFSHQLPRMPKEYITRLVADPKHKTLALIKDGRVIGGICFRMFPSQGFTEIVFCAVTSNEQVKGYGTHLMNHLKEYHIKHDILNFLTYADEYAIGYFKKQGFSKEIKIPKTKYVGYIKDYEGATLMGCELNPRIPYTE
notes: p300/CBP associated factor (PCAF, KAT2B), human, HAT domain, residues 493-658
B3: PCAF HAT domain (amino acids 493-658) L512D/V516D (domain or fragment, human, UniProt Q92831 493-658, looked up)
chain: VIEFHVVGNSLNQKPNKKIDMWLDGLQNVFSHQLPRMPKEYITRLVFDPKHKTLALIKDGRVIGGICFRMFPSQGFTEIVFCAVTSNEQVKGYGTHLMNHLKEYHIKHDILNFLTYADEYAIGYFKKQGFSKEIKIPKTKYVGYIKDYEGATLMGCELNPRIPYTE
notes: p300/CBP associated factor (PCAF, KAT2B), human, HAT domain, residues 493-658; also called LV512DD
B4: PCAF HAT domain (amino acids 493-658) L512D/V516D/F539A (domain or fragment, human, UniProt Q92831 493-658, looked up)
chain: VIEFHVVGNSLNQKPNKKIDMWLDGLQNVFSHQLPRMPKEYITRLVADPKHKTLALIKDGRVIGGICFRMFPSQGFTEIVFCAVTSNEQVKGYGTHLMNHLKEYHIKHDILNFLTYADEYAIGYFKKQGFSKEIKIPKTKYVGYIKDYEGATLMGCELNPRIPYTE
notes: p300/CBP associated factor (PCAF, KAT2B), human, HAT domain, residues 493-658; also called LVF512DDA

Molecular target: the molecule itself
Assay: cross-linking; 1 mg/ml protein in 50 mM HEPES pH7.5, 50 mM sodium sulfate; DSS at 5X molar concentration, 1 h at room temperature; SDS-PAGE, coomassie blue

Binding result, binds:
B1, B2, B3, B4
